# Reference: paper PMC10773654
# Target: human Interleukin-1 Receptor Associated Kinase 1 (IRAK1) protein, nanoluciferase BiMC construct (human) (UniProt P51617)
# Assay: split reporter
# Chain of UniProt P51617 (P51617 whole entry): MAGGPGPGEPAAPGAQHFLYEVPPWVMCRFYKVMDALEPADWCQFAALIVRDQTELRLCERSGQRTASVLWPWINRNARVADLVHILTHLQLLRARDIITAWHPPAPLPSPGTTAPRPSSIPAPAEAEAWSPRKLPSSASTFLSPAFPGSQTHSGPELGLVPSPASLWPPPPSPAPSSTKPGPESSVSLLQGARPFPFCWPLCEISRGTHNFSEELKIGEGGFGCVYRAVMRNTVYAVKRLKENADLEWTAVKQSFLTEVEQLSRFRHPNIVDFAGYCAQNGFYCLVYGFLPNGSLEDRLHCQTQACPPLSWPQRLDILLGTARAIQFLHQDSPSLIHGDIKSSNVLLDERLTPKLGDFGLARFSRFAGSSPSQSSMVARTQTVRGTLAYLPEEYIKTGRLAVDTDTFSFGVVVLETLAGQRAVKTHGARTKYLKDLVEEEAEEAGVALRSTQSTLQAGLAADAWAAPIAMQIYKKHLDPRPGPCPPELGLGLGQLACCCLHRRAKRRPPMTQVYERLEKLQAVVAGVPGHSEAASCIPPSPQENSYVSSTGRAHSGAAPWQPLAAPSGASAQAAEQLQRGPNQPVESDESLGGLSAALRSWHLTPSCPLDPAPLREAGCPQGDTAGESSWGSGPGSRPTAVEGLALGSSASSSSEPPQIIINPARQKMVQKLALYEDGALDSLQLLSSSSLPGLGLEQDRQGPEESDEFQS
substance,measurement,value
SINV CP truncation mutant ΔRI (RII and Protease domains) (domain or fragment),fold BiMC of nanoluciferase relative to the full-length SINV CP protein,2 fold
